Results from patent EP1506971A1 (The Regents of the University of California, dated 2005).

Molecular target: prokineticin receptor(s) of guinea pig ileal membrane / ileal smooth muscle (guinea pig)
Experiment: cell-based or functional assay

EC50 of ileal smooth muscle contraction, relative to prokineticin 1 or prokineticin 2: ~8 fold
B1: chimeric prokineticin 21 (exons 1 and 2 of prokineticin 2, exon 3 of prokineticin 1) (ligand)
chain: AVITGACDKDSQCGGGMCCAVSIWVKSIRICTPMGKLGDSCHPLTRKVPFFRKRKHHTCPCLPNLLCSRFPDGRYRCSMDLKNINF
